# Data: US20090299035A1
# B1: Protein expressed from pGG3T (SEQ ID NO: 25 repeated three times, n = 3) (designed binder)
# chain: AYRLILNGRTLRGETTTEAVDAATAERVFRQYANDNGVDGEWTYDDATRTFTVTERPEVIDASELTPAVTPGAYRLILNGRTLRGETTTEAVDAATAERVFRQYANDNGVDGEWTYDDATRTFTVTERPEVIDASELTPAVTPGAYRLILNGRTLRGETTTEAVDAATAERVFRQYANDNGVDGEWTYDDATRTFTVTERPEVIDASELTPAVTPGGGGGCADDDDDDHHHHHH
# B2: Protein expressed from pLL3T (SEQ ID NO: 26 repeated three times, n = 3) (designed binder)
# chain: ATIRANLIYADGRTQTAEFRGTFEEATAEAYRYADLLARENGRYTVDVADRGYTLNIRFAPGATIRANLIYADGRTQTAEFRGTFEEATAEAYRYADLLARENGRYTVDVADRGYTLNIRFAPGATIRANLIYADGRTQTAEFRGTFEEATAEAYRYADLLARENGRYTVDVADRGYTLNIRFAPGGGGGCADDDDDDHHHHHH
# B3: Immobilization carrier SEQ ID NO: 6 (←SEQ ID NO: 3) (designed binder)
# chain: ATIRANLIYADGRTQTAEFRGTFEEATAEAYRYADLLARENGRYTVDVADRGYTLNIRFAGGGGG
# modifications: carboxy terminus bound to a primary amino group on Amino-Cellulofine via an amide bond
# B4: pPG (SEQ ID NO: 2) (designed binder)
# chain: AYRLILNGRTLRGETTTEAVDAATAERVFRQYANDNGVDGEWTYDDATRTFTVTERPEVIDASELTPAVTGGGGCADDDDDDHHHHHH
# B5: Immobilization carrier SEQ ID NO: 5 (←SEQ ID NO: 2) (designed binder)
# chain: AYRLILNGRTLRGETTTEAVDAATAERVFRQYANDNGVDGEWTYDDATRTFTVTERPEVIDASELTPAVTGGGG
# modifications: carboxy terminus bound to a primary amino group on Amino-Cellulofine via an amide bond
# B6: pPL (SEQ ID NO: 3) (designed binder)
# chain: ATIRANLIYADGRTQTAEFRGTFEEATAEAYRYADLLARENGRYTVDVADRGYTLNIRFAGGGGGCADDDDDDHHHHHH
# Legend:
# [1] = molecular target: Human IgG (Sigma-Aldrich Corporation) (human); assay: Biacore SPR; protein on NTA chip, human IgG injected
# [2] = molecular target: Human IgG (Sigma-Aldrich Corporation) (human); assay: human IgG captured on the protein-immobilized Amino-Cellulofine carrier, released with 0.1 M acetic acid, A280
# [3] = molecular target: Human IgG (Sigma-Aldrich Corporation) (human); assay: Biacore SPR; protein on NTA chip, human IgG injected; reference repeated from Table 2
# [4] = molecular target: Human IgG (Sigma-Aldrich Corporation) (human); assay: Biacore SPR; protein on NTA chip, human IgG injected; reference repeated from Table 3
Binder,Kd [1] [nM],koff [1] [s⁻¹],kon [1] [M⁻¹ s⁻¹],Amount of bound human IgG (mg/ml carrier) [2],further results
B1,0.068,7.63e-05,1.12e+06,,
B2,0.788,0.000237,301000,,
B3,,,,3,
B4,0.384,0.000154,401000,,Kd [3]: 0.384 nM; koff [3]: 0.000154 s⁻¹; kon [3]: 401000 M⁻¹ s⁻¹
B5,,,,10,
B6,2.06,0.000312,151000,,Kd [4]: 2.06 nM; koff [4]: 0.000312 s⁻¹; kon [4]: 151000 M⁻¹ s⁻¹
